Reference: doi:10.1101/2021.05.16.444004 (bioRxiv, 2021)

Biological target: SARS-CoV-2 RBD-SD1 (SARS-CoV-2, Wuhan-Hu-1, UniProt P0DTC2)
Test: BLI

B1: 54042-4 IgG (antibody, V domains shown)
VH: QITLKESGPTLVKPTQTLTLTCTFSGFSLSTIGVGVSWIRQPPGKALDWLALIYWDDDKRYSPSLKSRLTVTMDTSKNQVVLTLTNMDPVDTATYFCAHGLFSSSDWGGLDVWGQGTTVTVSS
VL: DMQMTQSPSSLSASVGDRVTITCRASQSVFTYLNWYQQKPGKAPKLLIYAASRLQSGVPSRFRGSGSGTDFTLTISSLQPEDFATYYCQQSHSTPFIFGPGTKVDIK
  Kd: 21.8 nM
